Test results from PMC8930183, “Structure of the Pf12 and Pf41 heterodimeric complex of Plasmodium falciparum 6-cysteine proteins” (FEMS Microbes, 2022).

Key:
Details in all cases: both partners purified
[1] = target: T1, Pf12 labelled with DyLight 488 (Plasmodium falciparum (sequence as 3D7), DyLight 488 (N-hydroxysuccinimide ester), about 2.4 dye per protein); assay: FRET or BRET; Pf12-DL488 and Pf41-DL594 mixed 1:1 with five-fold excess of nanobody; FRET signal relative to the no-nanobody control
T1 construct: Pf12, Plasmodium falciparum 6-cysteine protein; The FRET methods say only 'Pf12'; also called Pf12-DL488
T1 chain: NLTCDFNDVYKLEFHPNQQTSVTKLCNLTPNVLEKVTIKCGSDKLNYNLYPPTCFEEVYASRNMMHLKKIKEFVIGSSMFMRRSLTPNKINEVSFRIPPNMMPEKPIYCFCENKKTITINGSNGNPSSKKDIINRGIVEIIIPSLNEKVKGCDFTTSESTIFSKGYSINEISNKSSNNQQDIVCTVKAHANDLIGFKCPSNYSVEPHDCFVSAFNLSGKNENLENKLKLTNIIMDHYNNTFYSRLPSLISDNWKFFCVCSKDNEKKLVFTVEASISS

[2] = target: T2, Pf12 D1D2 (residues 28-304), untagged (Plasmodium falciparum, UniProt C6KSX0); assay: BLI; Octet RED96e; nanobodies loaded on NTA sensors; untagged Pf12 or Pf41 (6-200 nM) or their domains in solution; PBS pH 7.4, 0.1% BSA, 0.05% TWEEN-20, 25°C; global 1:1 fit
T2 construct: Pf12, Plasmodium falciparum 6-cysteine protein, residues N28-S304 (domains D1 and D2); lacks the signal peptide and the GPI-anchor site; After TEV cleavage three residues, GAS, remain at the N-terminus as cloning artefacts; N-glycosylation sites kept; treated with PNGase F before crystallisation; also called Pf12 wildtype; source: Spodoptera frugiperda 21 cells, secreted into growth media, …

[3] = target: T3, Pf41 D1D2 (residues 21-368), untagged (Plasmodium falciparum, UniProt Q8I1Y0); assay: as above
T3 construct: Pf41, Plasmodium falciparum 6-cysteine protein, residues K21-S368 (D1 with the inserted-domain-like region ID, and D2); lacks the signal peptide and ten C-terminal residues; After TEV cleavage three residues, GAS, remain at the N-terminus as cloning artefacts; N-glycosylation sites kept; treated with PNGase F before crystallisation; also called Pf41 wildtype; source: Spodoptera frugiperda 21 …

[4] = target: T4, Pf12 D2 (residues E174-S304) (Plasmodium falciparum, UniProt C6KSX0); assay: as above
T4 construct: Pf12, Plasmodium falciparum, C-terminal 6-cys domain D2, residues E174-S304; also called Pf12 D2 domain; source: Spodoptera frugiperda 21 cells, purified by the same protocol as Pf12 D1D2; not shown: His8, N-terminal, cleaved

[5] = target: T5, Pf41 D2 (residues I242-S368) (Plasmodium falciparum 3D7, UniProt Q8I1Y0); assay: as above
T5 construct: Pf41, Plasmodium falciparum, C-terminal 6-cys domain D2, residues I242-S368; also called Pf41 D2 domain; source: Spodoptera frugiperda 21 cells, purified by the same protocol as Pf41 D1D2; not shown: His8, N-terminal, cleaved

[6] = target: T6, octa-histidine tagged Pf41 D1D2 (residues 21-368) (Plasmodium falciparum, UniProt Q8I1Y0 21-368); assay: BLI; Octet RED96e; octa-histidine tagged Pf41 loaded on NTA sensors; untagged Pf12 wildtype, mutant or single domain 31-1000 nM; PBS pH 7.4, 0.1% BSA, 0.05% TWEEN-20, 25°C; read-out relative maximum response against wildtype
T6 construct: Pf41, Plasmodium falciparum 6-cysteine protein, residues K21-S368; TEV-cleavable tag left on; loaded on NTA sensors; also called tagged wildtype Pf41; source: Spodoptera frugiperda 21 cells, secreted into growth media, purified as tagged protein (Ni-IMAC, SEC); not shown: His8, N-terminal, kept
T6 sequence: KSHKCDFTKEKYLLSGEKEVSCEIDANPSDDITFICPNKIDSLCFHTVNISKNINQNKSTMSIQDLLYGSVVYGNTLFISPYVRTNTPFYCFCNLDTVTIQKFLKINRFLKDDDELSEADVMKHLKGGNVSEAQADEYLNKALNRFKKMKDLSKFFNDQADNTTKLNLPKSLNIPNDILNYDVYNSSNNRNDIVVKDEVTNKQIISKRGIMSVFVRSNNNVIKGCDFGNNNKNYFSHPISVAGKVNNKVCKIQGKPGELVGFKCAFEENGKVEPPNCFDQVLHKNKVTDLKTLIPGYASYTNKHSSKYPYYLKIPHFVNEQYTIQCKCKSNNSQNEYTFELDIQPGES

[7] = target: T7, Pf41 D1D2 (residues 21-368), untagged (Plasmodium falciparum, UniProt Q8I1Y0 21-368); assay: AUC; sedimentation velocity, 20°C, 50 000 rpm, absorbance at 280 nm, c(s) analysis with SEDFIT
T7 construct: Pf41, Plasmodium falciparum 6-cysteine protein, residues K21-S368 (D1 with the inserted-domain-like region ID, and D2); lacks the signal peptide and ten C-terminal residues; After TEV cleavage three residues, GAS, remain at the N-terminus as cloning artefacts; N-glycosylation sites kept; treated with PNGase F before crystallisation; also called Pf41 wildtype; source: Spodoptera frugiperda 21 …
T7 sequence (looked up): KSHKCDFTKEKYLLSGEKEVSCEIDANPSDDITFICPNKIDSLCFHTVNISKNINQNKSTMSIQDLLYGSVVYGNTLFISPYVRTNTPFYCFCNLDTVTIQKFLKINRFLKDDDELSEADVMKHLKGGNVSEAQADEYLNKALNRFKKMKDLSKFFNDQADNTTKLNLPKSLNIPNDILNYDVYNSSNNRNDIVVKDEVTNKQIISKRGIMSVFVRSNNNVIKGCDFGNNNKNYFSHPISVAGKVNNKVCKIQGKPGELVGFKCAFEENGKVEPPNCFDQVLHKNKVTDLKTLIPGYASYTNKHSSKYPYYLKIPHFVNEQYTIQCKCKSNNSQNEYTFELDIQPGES

B1: nanobody H9 (VHH)
VHH: QVQLQESGGGLVQPGGSLRLSCAASGFTLDYYAIGWFRQAPGKEREGVSCIMSSDGSTYYADSVKGRFTISRDNAVNTVYLQMNGLKPEDTAVYYCATDKIVCGSGFIVDYGTDYRGKGTQVTVSS
notes: alpaca, immunised with Pf12-Pf41 complex; Pf12-specific; source: E. coli WK6, periplasmic extract, purified (HisTrap, SEC)
percent reduction of the Pf12-Pf41 FRET signal [1]: ~90%
Kd [2]: < 0.01 nM
binding result [3]: no binding

B2: nanobody G7 (VHH)
VHH: QVQLQESGGGLVQAGGSLRLSCAASGRTFSSYGMGWFRQAPGTEREFVAAISWSGDSTYYADSVKGRFTISIDKAKNTVYLQMNSLKPEDTAVYYCAADHALVVGGTYNYWGQGTQVTVSS
notes: alpaca, immunised with Pf12-Pf41 complex; Pf12-specific; also called Nb G7; source: E. coli WK6, periplasmic extract, purified (HisTrap, SEC)
percent reduction of the Pf12-Pf41 FRET signal [1]: ~80%
Kd [2]: ~25 nM
binding result [3]: no binding

B3: nanobody A3 (VHH)
VHH: QVQLQESGGGLVQAGGSLRLSCAASGRTFSNYAMGWFRQAPGKEREFVAAITWSGDSTYYGDSVKGRFTISRDNAKSTAYLQMNSLKPEDTAVYYCAADEAVVTTTLQWDYWGQGTQVTVSS
notes: as for B1
percent reduction of the Pf12-Pf41 FRET signal [1]: ~90%
binding result [2]: binds
binding result [4]: binds
binding result [3]: no binding

B4: nanobody A11 (VHH)
VHH: QVQLQESGGGLVQPGGSLRLSCAASGFTFDDYAIGWFRQAPGKEREGVSCIMSSDGSAYYADSVKGRFTISRDNAKNTVYLQMNSLRPEDTANYYCATDKIVCSTGFIVDYGMHYGGKGTQVTVSS
notes: as for B1
percent reduction of the Pf12-Pf41 FRET signal [1]: ~90%
binding result [2]: binds
binding result [4]: binds
binding result [3]: no binding

B5: nanobody H11 (VHH)
VHH: QVQLQESGGGLVQPGGSLRLSCAGSGFTLDHYAIGWFRQAPGKEREGVSCIISSDSSTYYTDSVKGRFTISRDNAKNTVYLQMNSLKPEDTAVYYCATEKIVCASGFIVDYGMDYCGKGTQVTVSS
notes: as for B1
binding result [2]: binds
binding result [4]: binds
binding result [3]: no binding

B6: nanobody A6 (VHH)
VHH: QVQLQESGGGLVQPGGSLRLSCAASGGTIRSDGMGWFRQVPKKEREFVGMITYMGPVYTADSVEGRFAISRDNVKNTVYLQMNNLQPEDTAVYYCAVHVGGIYYYEGSYEYWGQGTQVTVSS
notes: alpaca, immunised with Pf12-Pf41 complex; Pf41-specific; source: E. coli WK6, periplasmic extract, purified (HisTrap, SEC)
binding result [5]: no binding
binding result [3]: binds

B7: nanobody G12 (VHH)
VHH: QVQLQESGGGLVQPGGSLRLSCAASGGTIRSDSMGWFRQVPKKEREFVGMLTYMGPVYTADSVKGRFAISRDNVKNTVYLQMNNLQPDDTAVYYCAVHVSGVYYYEDSYRYWGQGTQVTVSS
notes: as for B6
binding result [5]: no binding
binding result [3]: binds

B8: nanobody G11 (VHH)
VHH: QVQLQESGGGLVQPGGSLRLSCAASGGTIRSDSMGWFRQVPKKEREFVGMITYMGPVYTADSVKGRFTISRDNVKNTVYLQMNNLQPEDAAVYYCAVHISGLYYYEASYKYWGQGTQVTVSS
notes: as for B6
binding result [5]: no binding
binding result [3]: binds

B9: Pf12 D1D2 (residues 28-304), untagged (domain or fragment, Plasmodium falciparum, UniProt C6KSX0 28-304, looked up)
chain: NLTCDFNDVYKLEFHPNQQTSVTKLCNLTPNVLEKVTIKCGSDKLNYNLYPPTCFEEVYASRNMMHLKKIKEFVIGSSMFMRRSLTPNKINEVSFRIPPNMMPEKPIYCFCENKKTITINGSNGNPSSKKDIINRGIVEIIIPSLNEKVKGCDFTTSESTIFSKGYSINEISNKSSNNQQDIVCTVKAHANDLIGFKCPSNYSVEPHDCFVSAFNLSGKNENLENKLKLTNIIMDHYNNTFYSRLPSLISDNWKFFCVCSKDNEKKLVFTVEASISS
notes: Pf12, Plasmodium falciparum 6-cysteine protein, residues N28-S304 (domains D1 and D2); lacks the signal peptide and the GPI-anchor site; After TEV cleavage three residues, GAS, remain at the N-terminus as cloning artefacts; N-glycosylation sites kept; treated with PNGase F before crystallisation; also called Pf12 wildtype; source: Spodoptera frugiperda 21 cells, secreted into growth media, …
binding result [6]: binds
binding result [7]: binds
